# T1: Gln^3-Aβ(3-11)a
# T1 chain: QFRHDSGYE
# T2: H-Gln-Ala-Ala-Ala-Ala-NH2
# T2 chain: QAAAA
# T3: H-Gln-Ala-Ala-Ser-Ala-Ala-NH2
# T3 chain: QAASAA
# T4: H-Gln-Ala-NH2
# T4 chain: QA
# T5: H-Gln-Ala-OH
# T5 chain: QA
# T6: H-Gln-Arg-Gly-Ile-NH2
# T6 chain: QRGI
# T7: H-Gln-Arg-Tyr-Phe-NH2
# T7 chain: QRYF
# T8: H-Gln-Asn-Gly-Ile-NH2
# T8 chain: QNGI
# T9: H-Gln-Gln-OH
# T9 chain: QQ
# T10: H-Gln-Gln-Tyr-Phe-NH2
# T10 chain: QQYF
# T11: H-Gln-Glu-Ala-Ala-NH2
# T11 chain: QEAA
# T12: H-Gln-Glu-Ala-Phe-NH2
# T12 chain: QEAF
# T13: H-Gln-Glu-Asp-Leu-NH2
# T13 chain: QEDL
# T14: H-Gln-Glu-OH
# T14 chain: QE
# T15: H-Gln-Glu-Tyr-Ala-NH2
# T15 chain: QEYA
# T16: H-Gln-Glu-Tyr-NH2
# T16 chain: QEY
# T17: H-Gln-Glu-Tyr-Phe-NH2
# T17 chain: QEYF
# T18: H-Gln-Gly-OH
# T18 chain: QG
# T19: H-Gln-Gly-Pro-OH
# T19 chain: QGP
# T20: H-Gln-His-Tyr-Phe-NH2
# T20 chain: QHYF
# T21: H-Gln-Lys-Arg-Leu-NH2
# T21 chain: QKRL
# T22: H-Gln-Phe-Ala-NH2
# T22 chain: QFA
# T23: H-Gln-Pro-Tyr-Phe-NH2
# T23 chain: QPYF
# T24: H-Gln-Ser-Tyr-Phe-NH2
# T24 chain: QSYF
# T25: H-Gln-Trp-Ala-NH2
# T25 chain: QWA
# T26: H-Gln-Tyr-Ala-OH
# T26 chain: QYA
# T27: H-Gln-Tyr-OH
# T27 chain: QY
# T28: H-Gln-Val-OH
# T28 chain: QV
# T29: H-Gln-cyclo(Nε-Lys-Arg-Pro-Ala-Gly-Phe)
# T29 chain: QKRPAGF
# T30: H-βhomoGln-Phe-Lys-Arg-Leu-Ala-NH2
# T30 chain: QFKRLA
# T31: [Gln^1]-GnRH
# T31 chain: QHWSYGLRPG
# T32: [Gln^5]-substance P(5-11)
# T32 chain: QQFFGLM
# Tests used:
# Gln^3-Aβ(3-11)a = molecular target: T1, Gln^3-Aβ(3-11)a
# [1] = molecular target: T2, H-Gln-Ala-Ala-Ala-Ala-NH2
# [2] = molecular target: T3, H-Gln-Ala-Ala-Ser-Ala-Ala-NH2
# H-Gln-Ala-NH2 = molecular target: T4, H-Gln-Ala-NH2
# H-Gln-Ala-OH = molecular target: T5, H-Gln-Ala-OH
# H-Gln-Arg-Gly-Ile-NH2 = molecular target: T6, H-Gln-Arg-Gly-Ile-NH2
# H-Gln-Arg-Tyr-Phe-NH2 = molecular target: T7, H-Gln-Arg-Tyr-Phe-NH2
# H-Gln-Asn-Gly-Ile-NH2 = molecular target: T8, H-Gln-Asn-Gly-Ile-NH2
# H-Gln-Gln-OH = molecular target: T9, H-Gln-Gln-OH
# H-Gln-Gln-Tyr-Phe-NH2 = molecular target: T10, H-Gln-Gln-Tyr-Phe-NH2
# H-Gln-Glu-Ala-Ala-NH2 = molecular target: T11, H-Gln-Glu-Ala-Ala-NH2
# H-Gln-Glu-Ala-Phe-NH2 = molecular target: T12, H-Gln-Glu-Ala-Phe-NH2
# H-Gln-Glu-Asp-Leu-NH2 = molecular target: T13, H-Gln-Glu-Asp-Leu-NH2
# H-Gln-Glu-OH = molecular target: T14, H-Gln-Glu-OH
# H-Gln-Glu-Tyr-Ala-NH2 = molecular target: T15, H-Gln-Glu-Tyr-Ala-NH2
# H-Gln-Glu-Tyr-NH2 = molecular target: T16, H-Gln-Glu-Tyr-NH2
# H-Gln-Glu-Tyr-Phe-NH2 = molecular target: T17, H-Gln-Glu-Tyr-Phe-NH2
# H-Gln-Gly-OH = molecular target: T18, H-Gln-Gly-OH
# H-Gln-Gly-Pro-OH = molecular target: T19, H-Gln-Gly-Pro-OH
# H-Gln-His-Tyr-Phe-NH2 = molecular target: T20, H-Gln-His-Tyr-Phe-NH2
# H-Gln-Lys-Arg-Leu-NH2 = molecular target: T21, H-Gln-Lys-Arg-Leu-NH2
# H-Gln-Phe-Ala-NH2 = molecular target: T22, H-Gln-Phe-Ala-NH2
# H-Gln-Pro-Tyr-Phe-NH2 = molecular target: T23, H-Gln-Pro-Tyr-Phe-NH2
# H-Gln-Ser-Tyr-Phe-NH2 = molecular target: T24, H-Gln-Ser-Tyr-Phe-NH2
# H-Gln-Trp-Ala-NH2 = molecular target: T25, H-Gln-Trp-Ala-NH2
# H-Gln-Tyr-Ala-OH = molecular target: T26, H-Gln-Tyr-Ala-OH
# H-Gln-Tyr-OH = molecular target: T27, H-Gln-Tyr-OH
# H-Gln-Val-OH = molecular target: T28, H-Gln-Val-OH
# [3] = molecular target: T29, H-Gln-cyclo(Nε-Lys-Arg-Pro-Ala-Gly-Phe)
# [4] = molecular target: T30, H-βhomoGln-Phe-Lys-Arg-Leu-Ala-NH2
# [Gln^1]-GnRH = molecular target: T31, [Gln^1]-GnRH
# [5] = molecular target: T32, [Gln^5]-substance P(5-11)
protein,measurement,setting,value
"recombinant human glutaminyl cyclase (QC, EC 2.3.2.5) (protein) VSPSASAWPEEKNYHQPAILNSSALRQIAEGTSISEMWQNDLQPLLIERYPGSPGSYAARQHIMQRIQRLQADWVLEIDTFLSQTPYGYRSFSNIISTLNPTAKRHLVLACHYDSKYFSHWNNRVFVGATDSAVPCAMMLELARALDKKLLSLKTVSDSKPDLSLQLIFFDGEEAFLHWSPQDSLYGSRHLAAKMASTPHPPGARGTSQLHGMDLLVLLDLIGAPNPTFPNFFPNSARWFERLQAIEHELHELGLLKDHSLEGRYFQNYSYGGVIQDDHIPFLRRGVPVLHLIPSPFPEVWHTMDDNEENLDESTIDNLNKILQVFVLEYLHL",KM (buffer containing 1% DMSO),Gln^3-Aβ(3-11)a,155 µM
same,KM (substrate conversion by QC),[1],65 µM
same,KM (substrate conversion by QC),[2],79 µM
same,KM (substrate conversion by QC),H-Gln-Ala-NH2,155 µM
same,"KM (0.05 M Tris-HCl, pH 8.0)",H-Gln-Ala-OH,0.269 mM
same,"KM (0.05 M Tris-HCl, pH 8.0, 0.5 M KCl)",H-Gln-Ala-OH,0.357 mM
same,KM (substrate conversion by QC),H-Gln-Ala-OH,232 µM
same,"KM (0.05 M Tris-HCl, pH 8.0)",H-Gln-Arg-Gly-Ile-NH2,0.166 mM
same,"KM (0.05 M Tris-HCl, pH 8.0, 0.5 M KCl)",H-Gln-Arg-Gly-Ile-NH2,0.091 mM
same,KM (substrate conversion by QC),H-Gln-Arg-Gly-Ile-NH2,143 µM
same,KM (substrate conversion by QC),H-Gln-Arg-Tyr-Phe-NH2,55 µM
same,KM (substrate conversion by QC),H-Gln-Asn-Gly-Ile-NH2,172 µM
same,KM (substrate conversion by QC),H-Gln-Gln-OH,148 µM
same,KM (substrate conversion by QC),H-Gln-Gln-Tyr-Phe-NH2,41 µM
same,KM (substrate conversion by QC),H-Gln-Glu-Ala-Ala-NH2,77 µM
same,KM (substrate conversion by QC),H-Gln-Glu-Ala-Phe-NH2,39 µM
same,"KM (0.05 M Tris-HCl, pH 8.0)",H-Gln-Glu-Asp-Leu-NH2,0.06 mM
same,"KM (0.05 M Tris-HCl, pH 8.0, 0.5 M KCl)",H-Gln-Glu-Asp-Leu-NH2,0.061 mM
same,KM (substrate conversion by QC),H-Gln-Glu-Asp-Leu-NH2,55 µM
same,"KM (0.05 M Tris-HCl, pH 8.0)",H-Gln-Glu-OH,0.373 mM
same,"KM (0.05 M Tris-HCl, pH 8.0, 0.5 M KCl)",H-Gln-Glu-OH,0.607 mM
same,KM (substrate conversion by QC),H-Gln-Glu-OH,359 µM
same,KM (substrate conversion by QC),H-Gln-Glu-Tyr-Ala-NH2,69 µM
same,KM (substrate conversion by QC),H-Gln-Glu-Tyr-NH2,79 µM
same,KM (substrate conversion by QC),H-Gln-Glu-Tyr-Phe-NH2,47 µM
same,KM (substrate conversion by QC),H-Gln-Gly-OH,247 µM
same,KM (substrate conversion by QC),H-Gln-Gly-Pro-OH,130 µM
same,KM (substrate conversion by QC),H-Gln-His-Tyr-Phe-NH2,68 µM
same,"KM (0.05 M Tris-HCl, pH 8.0)",H-Gln-Lys-Arg-Leu-NH2,0.051 mM
same,"KM (0.05 M Tris-HCl, pH 8.0, 0.5 M KCl)",H-Gln-Lys-Arg-Leu-NH2,0.034 mM
same,KM (substrate conversion by QC),H-Gln-Lys-Arg-Leu-NH2,54 µM
same,KM (substrate conversion by QC),H-Gln-Phe-Ala-NH2,69 µM
same,KM (substrate conversion by QC),H-Gln-Pro-Tyr-Phe-NH2,1890 µM
same,KM (substrate conversion by QC),H-Gln-Ser-Tyr-Phe-NH2,55 µM
same,"KM (0.05 M Tris-HCl, pH 8.0)",H-Gln-Trp-Ala-NH2,0.054 mM
same,"KM (0.05 M Tris-HCl, pH 8.0, 0.5 M KCl)",H-Gln-Trp-Ala-NH2,0.056 mM
same,KM (substrate conversion by QC),H-Gln-Trp-Ala-NH2,50 µM
same,KM (substrate conversion by QC),H-Gln-Tyr-Ala-OH,101 µM
same,KM (substrate conversion by QC),H-Gln-Tyr-OH,211 µM
same,KM (substrate conversion by QC),H-Gln-Val-OH,196 µM
same,KM (substrate conversion by QC),[3],"KM-values of 240±14 µM and 133±5 µM for human and papaya QC, respectively"
same,KM (substrate conversion by QC),[4],KM=2.5±0.2 mM
same,KM (substrate conversion by QC),[Gln^1]-GnRH,53 µM
same,"substrate conversion, determined qualitatively by MALDI-TOF",[5],*
